Source: PMC6281700, “Biochemical Characterization of Kluyveromyces lactis Adenine Deaminase and Guanine Deaminase and Their Potential Application in Lowering Purine Content in Beer” (Frontiers in Bioengineering and Biotechnology, 2018)

B1: KlacGDA (Kluyveromyces lactis NRRL Y-1140) (protein)
chain: MAPVTINMVKSEESFIDEPFHPEGVKIIVHYGNLIDTPELGQLRIRLKCAVGICSTSGVILFIEEGCDDPVIAALNYDRYLKDIDIHVIFNSVSDPAGKDSFYFPGFVDTHIHASQYPNCGIFGNSTLLDWLDTYTFPLESSLNDENIAALTYDAVISQTLKHGTTCASYFTTIDSNSSKIMADLCKSKGQRAFIGKVCMNQHSPSYYQETIEECKDASLDLIEYILKDLNSPLIKPIITPRFAITCSSALMDSLSEVAEEFDLPIQTHLNENDSEIAFVKELFKDCHSYTDVYHKHGLLNGKTVLAHCIHLEDSEIELLKKSSAGISHCPISNSSLTSGECRVKELLNYGLKVSLGSDVSGGFTVSILENARQALLVSRHRAMSVEDPERKEECKLSVAEVLYLATMGGAKVLNLSDKIGSFDVGKEFDAQLIDLSTKGSNVSIFPWQKVTNDKIQPNGKDRIKLENIVAKWLFNGDDRNVKSVWVRGKLCHQNL
notes: full length, N-terminal 6xHis (pET28c NdeI/XhoI), E. coli BL21(DE3); 106 kDa dimer; gene at chromosome D 1,643,703-1,645,193 (1491 bp, about 496 residues)
B2: KlacADA (Kluyveromyces lactis NRRL Y-1140) (protein)
chain: MAKFECTDEVTNFLTELPKCEHHLHLEGTLEPELLFQLVERNGVQLPGTFPKTVNELHVIYNNFADLQDFLNYYYIGCNVLLSEDDFFELAWSYFKRVSTQGLRHAEVFYDPQSHTSRGISLEVVTKGFERACAKAQEEFNISTKLIMCLLRHCPVEECMDTVKSAKSLIESGVIDGLGLDSSERPFPPELFVECYQLAKSYNKELQLTAHAGEEGDPSFVTNTLDLLETTRIDHGVRSIEDAELIKRLAAQKVMLTLCPLSNVKLQVVKDVSELPLQEFLDNDVPFSINSDDPAYFGGYILQNYLEVYSRFGWSKAVWAKIARQSIEGSWCDPKRKQELLSEVSEVVNKYVNLP
notes: full length, N-terminal 6xHis (pET28c NdeI/XhoI), E. coli BL21(DE3); 46 kDa monomer; gene at chromosome E 2,064,516-2,065,583, no introns (1068 bp, about 355 residues)

Legend:
purified protein [1] = substrate: Nc1nc2nc[nH]c2c(=O)[nH]1; assay: purified protein; type: biochemical, Kluyveromyces lactis; conditions: 100 mM phosphate, pH 7.0, 25°C
purified protein [2] = substrate: Nc1ncnc2nc[nH]c12; assay: purified protein; type: biochemical, Kluyveromyces lactis; conditions: 100 mM potassium phosphate, pH 6.0, 30°C

Protein | Km (purified protein [1]) [µM] | kcat (purified protein [1]) [s⁻¹] | kcat/Km (purified protein [1]) [M⁻¹ s⁻¹] | Km (purified protein [2]) [µM] | kcat (purified protein [2]) [s⁻¹] | kcat/Km (purified protein [2]) [M⁻¹ s⁻¹]
B1 | 83 ± 2.7 | 7.3 ± 1.2 | 87000 |  |  | 
B2 |  |  |  | 680 ± 4.6 | 8.1 ± 1.3 | 11000
